From patent US20220041738A1 (SAITAMA MEDICAL UNIVERSITY, published 2022)
Changes are numbered by the printed parent chain.

T1: human ALK2 extracellular domain with C-terminal His tag (E. coli) (human, UniProt Q04771 21-123)
T1 construct: Expressed in E. coli SHuffle T7, purified to a single band of 12 kDa; also called ALK2-ECD; human ALK2-ECD; not shown: C-terminal His tag from pET-28b(+)
T1 sequence: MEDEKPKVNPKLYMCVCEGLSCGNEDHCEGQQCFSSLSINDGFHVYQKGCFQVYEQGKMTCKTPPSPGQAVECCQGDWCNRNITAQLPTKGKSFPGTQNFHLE

B1: humanized hA2-15A-H4/L6 (IgG2) (antibody)
heavy: EVQLVESGGGLVQPGGSLRLSCAASGFTFSHYYMAWVRQAPGKGLEWVASITNSGGSINYRDSVKGRFTISRDNAKSTLYLQMNSLRAEDTATYYCTREGGENYGGYPPFAYWGQGTLVTVSSASTKGPSVFPLAPCSRSTSESTAALGCLVKDYFPEPVTVSWNSGALTSGVHTFPAVLQSSGLYSLSSVVTVPSSNFGTQTYTCNVDHKPSNTKVDKTVERKCCVECPPCPAPPVAGPSVFLFPPKPKDTLMISRTPEVTCVVVDVSHEDPEVQFNWYVDGVEVHNAKTKPREEQFNSTFRVVSVLTVVHQDWLNGKEYKCKVSNKGLPAPIEKTISKTKGQPREPQVYTLPPSREEMTKNQVSLTCLVKGFYPSDIAVEWESNGQPENNYKTTPPMLDSDGSFFLYSKLTVDKSRWQQGNVFSCSVMHEALHNHYTQKSLSLSPGK
light: DIVLTQSPDSLAVSLGERATINCRANQGVSLSRYNLMHWYQQKPGQKPKLLIYRSSNLAQGIPARFSGSGSGTDFTLTISSVQADDIAVYYCQQSRESPFTFGQGTKLELKRAVAAPSVFIFPPSDEQLKSGTASVVCLLNNFYPREAKVQWKVDNALQSGNSQESVTEQDSKDSTYSLSSTLTLSKADYEKHKVYACEVTHQGLSSPVTKSFNRGEC
notes: Human IgG2, kappa; also called humanized A2-15A-H4/L6 (IgG2); humanized A2-15A antibody (IgG2)
B2: humanized hA2-27D-H2/L2 (IgG1 LALA) (antibody)
heavy: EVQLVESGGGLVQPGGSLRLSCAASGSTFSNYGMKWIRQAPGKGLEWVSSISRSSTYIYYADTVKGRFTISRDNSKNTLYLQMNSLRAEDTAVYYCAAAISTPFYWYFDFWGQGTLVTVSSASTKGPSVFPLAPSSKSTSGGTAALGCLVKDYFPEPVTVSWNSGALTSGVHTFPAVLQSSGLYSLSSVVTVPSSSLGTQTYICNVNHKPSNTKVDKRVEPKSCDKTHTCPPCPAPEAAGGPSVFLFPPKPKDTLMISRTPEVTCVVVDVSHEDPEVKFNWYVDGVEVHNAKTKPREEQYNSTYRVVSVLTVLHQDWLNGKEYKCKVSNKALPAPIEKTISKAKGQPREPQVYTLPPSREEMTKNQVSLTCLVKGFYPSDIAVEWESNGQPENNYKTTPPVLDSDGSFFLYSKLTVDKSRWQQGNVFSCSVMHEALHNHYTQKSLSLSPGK
light: EIVLTQSPGTLSLSPGERATLSCLASSSVSYMTWYQQKPGQSPRLWIYGTSNLASGVPDRFSGSGSGTDFTLTISRLEPEDFAVYYCLHLTSYPPYTFGQGTKVEIKRAVAAPSVFIFPPSDEQLKSGTASVVCLLNNFYPREAKVQWKVDNALQSGNSQESVTEQDSKDSTYSLSSTLTLSKADYEKHKVYACEVTHQGLSSPVTKSFNRGEC
notes: also called humanized A2-27D-H2/L2 (IgG1 LALA); humanized A2-27D antibody (LALA)
B3: humanized hA2-27D-H3/L4 (IgG1 LALA) (antibody)
heavy: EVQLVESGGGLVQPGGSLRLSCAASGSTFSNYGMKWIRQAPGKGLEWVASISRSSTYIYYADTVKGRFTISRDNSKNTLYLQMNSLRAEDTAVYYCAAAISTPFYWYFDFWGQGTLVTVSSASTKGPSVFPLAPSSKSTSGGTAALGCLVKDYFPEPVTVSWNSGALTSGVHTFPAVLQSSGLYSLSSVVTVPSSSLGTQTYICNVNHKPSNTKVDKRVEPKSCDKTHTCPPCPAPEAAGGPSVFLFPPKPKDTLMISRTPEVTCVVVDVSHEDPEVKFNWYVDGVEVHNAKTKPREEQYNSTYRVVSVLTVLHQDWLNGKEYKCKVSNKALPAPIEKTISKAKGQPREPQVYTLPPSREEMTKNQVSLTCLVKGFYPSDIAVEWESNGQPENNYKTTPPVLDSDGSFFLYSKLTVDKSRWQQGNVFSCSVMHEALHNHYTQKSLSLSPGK
light: B2 light with L11M, L13A, A19V, Q41A, F70Y, L77M, V84T, Q100A, V104L, I106L

These binders were tested against T1, human ALK2 extracellular domain with … (assay: SPR, Biacore T200; antibody captured by anti-human IgG (Fc), antigen as analyte; 1:1 binding model).
Method: The dissociation constants of humanized hA2-15A-H4/L6 (IgG2) prepared in Example 11)-4, and humanized hA2-27D-H2/L2 (IgG1 LALA) and humanized hA2-27D-H3/L4 (IgG1 LALA) prepared in Example 12)-4 for the antigen (human ALK2 extracellular domain prepared in Example 14)-1) were measured using Biacore T200 (GE Healthcare Bio-Sciences Corp., Japan) by the capture method which involves capturing each antibody as a ligand onto an immobilized anti-human IgG (Fc) antibody and assaying the antigen as an analyte. Approximately 1000 RU of the anti-human IgG (Fc) antibody (Human Antibody Capture kit, GE Healthcare Bio-Sciences Corp.) was covalently bound to a sensor chip CM5 (GE Healthcare Bio-Sciences Corp.) by the amine coupling method. Similarly, this antibody was immobilized onto a reference cell. The running buffer used was HBS-EP+(10 mM HEPES (pH 7.4), 0.15 M NaCl, 3 mM EDTA, and 0.05% Surfactant P20). The antibody was added onto the anti-human IgG (Fc) antibody-immobilized chip for approximately 1 minute. Then, serially diluted solutions (0.78 to 200 nM) of the antigen were added thereto at a flow rate of 30 μl/min for 300 seconds. Subsequently, the dissociation phase was monitored for 600 seconds. A 3 M magnesium chloride solution was added thereto as a regenerating solution at a flow rate of 10 μl/min for 30 seconds. The data was analyzed using 1:1 binding models of analytical software (BIAevaluation software, version 1.0) to calculate an association rate constant ka, a dissociation rate constant kd, and a dissociation constant (KD; KD=kd/ka).
For B1, the Kd was 17.4 nM. Work on B2 yielded a Kd of 13.6 nM. B3 gave a Kd of 13.3 nM.
